From US9096646B2, “CXCR4 receptor compounds” (priority 2008, dated 2015)
“And” between values parts separate entries of the source, which are not always exact repeats. Equal values may be shown once. Peptide text beside a SMILES is read from it. * marks the point of attachment. Palmitoyl = CCCCCCCCCCCCCCCC(=O)*

Assays:
CXCR4 [1] = molecular target: T1, CXCR4 (Homo sapiens, UniProt P61073); test: Chemotaxis assay using SUP B-15 cells; assay type: cell-based; set-up: A similar procedure was followed for chemotaxis using SUP B-15 cells; endogenous in cells; host or cells: SUP B-15 cells; settings: for AUC (% of vehicle) / Max (% of vehicle) / Peak Test Comp.: Table 19, i2 loop, SUPB-15 cells, conc 1.0 uM; for activity at 1 µM: SUP-B15, Table 18, i1 loop, SUP B-15 cells, drug conc 1.0 uM
Source text: Chemotaxis assays were utilized to determine the effect of compound on the directed migration of cells in response to chemokine. Cells that express a receptor of interest were placed in the upper chamber of a Transwell chemotaxis plate (Corning) and allowed to migrate through a polycarbonate membrane to a lower chamber containing the appropriate receptor-specific ligand. To test for antagonist or potentiating activity, cells were mixed with the desired concentration of compound prior to addition to the upper chamber. Conversely, agonist activity was determined by adding compound in the bottom chamber only without endogenous chemokine. The effect of compound is quantified by several parameters, including the extent of maximum response, the shift of agonist dose-response curves, and the area under the curve.
To measure the CXCR4-dependent migration of cells, the appropriate concentration of CXCL12 (SDF1a) or test compound was diluted in phenol red-free RMPI-1640/20 mM HEPES/0.5% BSA buffer and placed in the bottom chamber of a transwell apparatus. CCRF-CEM cells, a human T-cell ALL line that endogenously expresses CXCR4, were washed twice in buffer and resuspended at 133,000 cells/ml. A 75 μl sample of this suspension is mixed with the test compound of interest and placed in the upper chamber of a 5-micron transwell apparatus.
To initiate cell migration, the assembled transwell plate was placed in a 37° C., […] incubator for a specified time interval, typically between 30 and 120 minutes. After incubation, the unit was disassembled and the lower chamber placed at −80° C. overnight to facilitate lysis of cells. To quantify migrated cells, plates were thawed at 37° C. in a humidified chamber, and then a sample volume was removed from each well and mixed with an equal volume of CyQuant (Invitrogen) working solution in opaque plates. The fluorescence intensity of each well represents the DNA content and is directly proportional to cell number. Each sample was typically run in duplicate or triplicate and each plate included two separate negative controls. The plate background control, which included no cells in the upper chamber, was subtracted from all values. The negative control had no agonist added in the lower chamber, and served to establish the baseline for random migration. A similar procedure was followed for chemotaxis using SUP B-15 cells.

CXCR4 [2] = molecular target: T1, CXCR4; test: Chemotaxis assay, effect on SDF1-a (CXCL12) induced migration of CCRF-CEM cells; assay type: cell-based; set-up: a human T-cell ALL line that endogenously expresses CXCR4; endogenous in cells; host or cells: CCRF-CEM (human T-cell ALL line); settings: Table 20, i3 loop, CEM cells, conc 1.0 uM; for activity at 1 µM: CCRF-CEM; for Peak Ratio: peak test compound/peak control
Method: To initiate cell migration, the assembled transwell plate was placed in a 37° C., 0.5% CO2 incubator for a specified time interval, typically between 30 and 120 minutes. After incubation, the unit was disassembled and the lower chamber placed at −80° C. overnight to facilitate lysis of cells. To quantify migrated cells, plates were thawed at 37° C. in a humidified chamber, and then a sample volume was removed from each well and mixed with an equal volume of CyQuant (Invitrogen) working solution in opaque plates. The fluorescence intensity of each well represents the DNA content and is directly proportional to cell number. […] The plate background control, which included no cells in the upper chamber, was subtracted from all values.

T1 sequence (P61073 whole entry): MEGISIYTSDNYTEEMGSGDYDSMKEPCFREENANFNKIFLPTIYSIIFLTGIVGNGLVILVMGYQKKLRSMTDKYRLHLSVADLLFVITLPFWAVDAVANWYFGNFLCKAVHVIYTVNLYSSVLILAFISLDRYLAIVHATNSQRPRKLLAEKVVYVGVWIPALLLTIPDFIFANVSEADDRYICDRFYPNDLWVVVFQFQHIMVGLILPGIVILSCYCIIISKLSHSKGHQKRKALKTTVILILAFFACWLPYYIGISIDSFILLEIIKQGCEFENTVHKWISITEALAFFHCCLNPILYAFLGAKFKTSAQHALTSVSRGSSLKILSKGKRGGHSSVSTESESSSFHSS

## 79 (Palmitoyl-HATNSQRPRKL-NH2; not fully specified) [Compound 79]
CXCR4 [1]
  AUC (% of vehicle): 109.36 % of vehicle
  Max (% of vehicle): 109.68 % of vehicle
  Peak Test Comp.: 5 nM

## 82 (Palmitoyl-HATNSQRPRKLLAEK-NH2; not fully specified) [Compound 82]
CXCR4 [1]
  AUC (% of vehicle): 124.56 % of vehicle
  Max (% of vehicle): 126.31 % of vehicle
  Peak Test Comp.: 1 nM

## 83 (Palmitoyl-HATNSQRPRKLLAEKV-NH2; not fully specified) [Compound 83]
CXCR4 [1]
  AUC (% of vehicle): 126.36 % of vehicle
  Max (% of vehicle): 110.06 % of vehicle
  Peak Test Comp.: 5 nM

## 78 (Palmitoyl-VHATNSQRPRKLLA-NH2; not fully specified) [Compound 78]
CXCR4 [1]
  AUC (% of vehicle): 71.85 % of vehicle
  Max (% of vehicle): 72.31 % of vehicle
  Peak Test Comp.: 5 nM

## CCCCCCCCCCCCCCCC(=O)N[C@@H](CCSC)C(=O)NCC(=O)N[C@@H](Cc1ccc(O)cc1)C(=O)N[C@@H](CCC(N)=O)C(=O)N[C@@H](CCCCN)C(=O)N[C@@H](CCCCN)C(=O)N[C@@H](CC(C)C)C(=O)N[C@@H](CCCNC(=N)N)C(=O)N[C@@H](CO)C(=O)N[C@@H](CCSC)C(=O)N[C@H](C(=O)N[C@@H](CC(=O)O)C(=O)N[C@@H](CCCCN)C(=O)N[C@@H](Cc1ccc(O)cc1)C(=O)N[C@@H](CCCNC(=N)N)C(=O)N[C@@H](CC(C)C)C(N)=O)[C@@H](C)O [Compound 38, Pal-MGYQKKLRSMTDKYRL-amide] (Palmitoyl-MGYQKKLRSMTDKYRL-NH2)
CXCR4 [1]; read-out: AUC (% of)
  activity at 1 µM: 32.4%
CXCR4 [1]; read-out: Max (% of)
  activity at 1 µM: 49.6%

## CCCCCCCCCCCCCCCC(=O)N[C@@H](CCCCN)C(=O)N[C@@H](CCCCN)C(=O)N[C@@H](CC(C)C)C(=O)N[C@@H](CCCNC(=N)N)C(=O)N[C@@H](CO)C(=O)N[C@@H](CCSC)C(=O)N[C@H](C(=O)N[C@@H](CC(=O)O)C(=O)N[C@@H](CCCCN)C(=O)N[C@@H](Cc1ccc(O)cc1)C(=O)N[C@@H](CCCNC(=N)N)C(=O)N[C@@H](CC(C)C)C(=O)N[C@@H](Cc1cnc[nH]1)C(=O)N[C@@H](CC(C)C)C(N)=O)[C@@H](C)O [Compound 42] (Palmitoyl-KKLRSMTDKYRLHL-NH2)
CXCR4 [1]; read-out: AUC (% of)
  activity at 1 µM: 43.8%
CXCR4 [1]; read-out: Max (% of)
  activity at 1 µM: 33.5%

## 74 (DRYLAIVHATNSQRPRKLL) [Compound 74]
CXCR4 [1]
  AUC (% of vehicle): 90.39 % of vehicle and 77.13 % of vehicle
  Max (% of vehicle): 91.29 % of vehicle and 75.81 % of vehicle
  Peak Test Comp.: 5 nM

## CCCCCCCCCCCCCCCC(=O)N[C@@H](Cc1ccc(O)cc1)C(=O)N[C@@H](CCC(N)=O)C(=O)N[C@@H](CCCCN)C(=O)N[C@@H](CCCCN)C(=O)N[C@@H](CC(C)C)C(=O)N[C@@H](CCCNC(=N)N)C(=O)N[C@@H](CO)C(=O)N[C@@H](CCSC)C(=O)N[C@H](C(=O)N[C@@H](CC(=O)O)C(=O)N[C@@H](CCCCN)C(=O)N[C@@H](Cc1ccc(O)cc1)C(=O)N[C@@H](CCCNC(=N)N)C(=O)N[C@@H](CC(C)C)C(=O)N[C@@H](Cc1cnc[nH]1)C(=O)N[C@@H](CC(C)C)C(=O)N[C@@H](CO)C(=O)N[C@H](C(N)=O)C(C)C)[C@@H](C)O [Compound 40] (Palmitoyl-YQKKLRSMTDKYRLHLSV-NH2)
CXCR4 [1]; read-out: AUC (% of)
  activity at 1 µM: 71.9%
CXCR4 [1]; read-out: Max (% of)
  activity at 1 µM: 71.2%

## CCCCCCCCCCCCCCCC(=O)N[C@@H](CCCCN)C(=O)N[C@@H](CCCCN)C(=O)N[C@@H](CC(C)C)C(=O)N[C@@H](CCCNC(=N)N)C(=O)N[C@@H](CO)C(=O)N[C@@H](CCSC)C(=O)N[C@H](C(=O)N[C@@H](CC(=O)O)C(=O)N[C@@H](CCCCN)C(=O)N[C@@H](Cc1ccc(O)cc1)C(=O)N[C@@H](CCCNC(=N)N)C(=O)N[C@@H](CC(C)C)C(N)=O)[C@@H](C)O [Compound 44, Pal-KKLRSMTDKYRL-amide] (Palmitoyl-KKLRSMTDKYRL-NH2)
CXCR4 [1]; read-out: AUC (% of)
  activity at 1 µM: 25.9%
CXCR4 [1]; read-out: Max (% of)
  activity at 1 µM: 31.5%

## 81 (Palmitoyl-HATNSQRPRKLLAE-NH2; not fully specified) [Compound 81]
CXCR4 [1]
  AUC (% of vehicle): 79.85 % of vehicle
  Max (% of vehicle): 76.46 % of vehicle
  Peak Test Comp.: 5 nM

## CCCCCCCCCCCCCCCC(=O)N[C@@H](CCCCN)C(=O)N[C@@H](CCCCN)C(=O)N[C@@H](CC(C)C)C(=O)N[C@@H](CCCNC(=N)N)C(=O)N[C@@H](CO)C(=O)N[C@@H](CCSC)C(=O)N[C@H](C(=O)N[C@@H](CC(=O)O)C(=O)N[C@@H](CCCCN)C(=O)N[C@@H](Cc1ccc(O)cc1)C(=O)N[C@@H](CCCNC(=N)N)C(N)=O)[C@@H](C)O [Compound 45] (Palmitoyl-KKLRSMTDKYR-NH2)
CXCR4 [1]; read-out: AUC (% of)
  activity at 1 µM: 178%
CXCR4 [1]; read-out: Max (% of)
  activity at 1 µM: 194%

## 80 (Palmitoyl-HATNSQRPRKLLA-NH2; not fully specified) [Compound 80]
CXCR4 [1]
  AUC (% of vehicle): 102.2 % of vehicle
  Max (% of vehicle): 69.02 % of vehicle
  Peak Test Comp.: 5 nM

## CCCCCCCCCCCCCCCC(=O)N[C@@H](Cc1cnc[nH]1)C(=O)N[C@@H](CO)C(=O)N[C@@H](CCCCN)C(=O)NCC(=O)N[C@@H](Cc1cnc[nH]1)C(=O)N[C@@H](CCC(N)=O)C(=O)N[C@@H](CCCCN)C(=O)N[C@@H](CCCNC(=N)N)C(=O)N[C@@H](CCCCN)C(=O)N[C@@H](C)C(=O)N[C@@H](CC(C)C)C(=O)N[C@@H](CCCCN)C(=O)N[C@H](C(=O)N[C@H](C(=O)N[C@H](C(=O)N[C@H](C(N)=O)[C@@H](C)CC)C(C)C)[C@@H](C)O)[C@@H](C)O [Compound 100] (Palmitoyl-HSKGHQKRKALKTTVI-NH2)
CXCR4 [2]; read-out: AUC (% of vehicle)
  activity at 1 µM: 49.3%
CXCR4 [2]; read-out: Max (% of vehicle)
  activity at 1 µM: 49.8%
CXCR4 [2]
  Peak Test Compound: 0.2 nM
  Peak Ratio: 0.04

## CCCCCCCCCCCCCCCC(=O)N[C@@H](CCCCN)C(=O)N[C@@H](CC(C)C)C(=O)N[C@@H](CO)C(=O)N[C@@H](Cc1cnc[nH]1)C(=O)N[C@@H](CO)C(=O)N[C@@H](CCCCN)C(=O)NCC(=O)N[C@@H](Cc1cnc[nH]1)C(=O)N[C@@H](CCC(N)=O)C(=O)N[C@@H](CCCCN)C(=O)N[C@@H](CCCNC(=N)N)C(=O)N[C@@H](CCCCN)C(=O)N[C@@H](C)C(N)=O [Compound 94] (Palmitoyl-KLSHSKGHQKRKA-NH2)
CXCR4 [2]; read-out: AUC (% of vehicle)
  activity at 1 µM: 65.3%
CXCR4 [2]; read-out: Max (% of vehicle)
  activity at 1 µM: 80.5%
CXCR4 [2]
  Peak Test Compound: 1 nM
  Peak Ratio: 1
